Consider 2 substances from US20180335429.

The test system of series [1] is MMP substrate, 5-FAM-GGPLGVRGKK(CPQ2)-PEG2-C, presented on the iron-oxide nanoparticle (ABN) surface.
Series [2] concerns T1, thrombin substrate, 5-FAM-GGfPRSGGGK(CPQ2)-PEG2-C, presented on the nanoparticle surface.
T1 sequence: GGFPRSGGGKC

recombinant MMP-9 (Enzo Life Sciences), sequence (chain, as listed by the source): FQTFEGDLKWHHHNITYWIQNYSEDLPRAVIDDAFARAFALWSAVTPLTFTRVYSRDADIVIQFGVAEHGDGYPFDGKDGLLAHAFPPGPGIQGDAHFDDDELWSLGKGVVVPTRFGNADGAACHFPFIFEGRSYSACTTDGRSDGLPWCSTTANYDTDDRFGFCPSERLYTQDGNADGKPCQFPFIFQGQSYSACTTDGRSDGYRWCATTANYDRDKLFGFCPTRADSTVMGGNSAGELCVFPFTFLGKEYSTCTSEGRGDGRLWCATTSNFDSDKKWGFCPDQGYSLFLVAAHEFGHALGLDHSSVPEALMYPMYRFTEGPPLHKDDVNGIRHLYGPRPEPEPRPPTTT

With thrombin (Haematologic Technologies), in series [1], the “cleavage velocity (V) at 6 µM substrate, long tether end” value is recorded as “V at 6 µM of substrate decreased from 0.29 to 0.01 nM s^-1”; the “cleavage velocity (V) at 6 µM substrate, short tether end” value is reported as “V at 6 µM of substrate decreased from 0.29 to 0.01 nM s^-1”; the “fold change of cleavage with tether length at 6 µM substrate” value is “thrombin cleavage decreased 1-fold at the same substrate concentration”. Further, the “cleavage of the substrate at varying linker lengths” value in series [2] is reported as “thrombin cleavage of a thrombin-selective substrate (fPRSGGG ...) was optimally presented at an intermediate length”.
Take recombinant MMP-9 (Enzo Life Sciences): in series [1], the “cleavage velocity (V) at 6 µM substrate, high end over the tether lengths tested (0, 4, 24 and 114 PEG subunits)” value was “cleavage velocity (V) increased from 0.24 to 0.96 nM s^-1 at 6 µM”; the “cleavage velocity (V) at 6 µM substrate, low end over the tether lengths tested (0, 4, 24 and 114 PEG subunits)” value is recorded as “cleavage velocity (V) increased from 0.24 to 0.96 nM s^-1 at 6 µM”; the “fold change of cleavage with tether length at 6 µM substrate” value was “MMP9 cleavage was found to increase 4-fold for 6 µM of substrate”.
